According to US20220135679A1 (GREEN CROSS, published 2022):

Biological target: T1, recombinant human GPNMB (human, UniProt Q14956 23-498)
T1 construct: also called GPNMB purified from HEK293 cells; GPNMB antigen
T1 sequence: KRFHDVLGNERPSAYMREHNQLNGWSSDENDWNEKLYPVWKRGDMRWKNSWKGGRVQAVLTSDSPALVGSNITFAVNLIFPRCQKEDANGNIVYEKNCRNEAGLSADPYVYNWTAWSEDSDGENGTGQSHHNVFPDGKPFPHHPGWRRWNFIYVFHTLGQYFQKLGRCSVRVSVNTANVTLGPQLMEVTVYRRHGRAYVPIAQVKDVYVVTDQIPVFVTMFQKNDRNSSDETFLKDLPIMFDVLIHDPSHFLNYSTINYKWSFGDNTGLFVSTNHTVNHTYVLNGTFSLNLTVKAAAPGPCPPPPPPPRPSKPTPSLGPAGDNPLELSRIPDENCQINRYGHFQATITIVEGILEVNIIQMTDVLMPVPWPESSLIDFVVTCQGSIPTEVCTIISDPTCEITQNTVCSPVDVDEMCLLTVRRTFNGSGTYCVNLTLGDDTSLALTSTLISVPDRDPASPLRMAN
Experiment: SPR, Biacore T-200; GPNMB amine-coupled on CM5 chip, bispecific antibody as analyte at 0.078 to 5 nM
Protocol: Quantitative binding capacity (affinity) of the purified bispecific antibody to recombinant human GPNMB was measured using Biacore T-200 (GE Healthcare, USA) that is a biosensor. GPNMB purified from HEK293 cells was fixed on a CM5 chip (GE Healthcare) using an amine-carboxyl reaction until 200 Rmax was obtained. Next, the GPNMB/CD3 bispecific antibody, which was serially diluted in HBS-EP buffer (10 mM HEPES, pH 7.4, 150 mM NaCl, 3 mM EDTA, 0.005% Surfactant P20), was allowed to bind thereto in a concentration range of 0.078 nM to 5 nM for 120 seconds, and flowed at a flow rate of 30 μL/min for 1800 seconds so that dissociation was achieved. Dissociation of the antibody bound to GPNMB was induced by flowing 10 mM glycine-HCl (pH 1.5) for 30 seconds at a flow rate of 30 μL/min (Table 2). The affinity was obtained as kinetic rate constants (Kₒₙ and Koff) and equilibrium dissociation constant (KD) using Biacore T-200 Evaluation Software (Table 3).

B1: GPNMB (SEQ ID NO: 35)/A15 (SEQ ID NO: 36) bispecific antibody (bispecific antibody, human IgG1, lambda, L234A L235A)
chain 1: not shown
chain 2: QAVVTQEPSLTVSPGGTVTLTCRSSTGAVTTSNYANWVQQKPGQAPRGLIGGTNKRAPWTPARFSGSLLGGKAALTLSGAQPEDEAEYYCALWYSNLWVFGGGTKLTVLGQPKANPTVTLFPPSSEELQANKATLVCLISDFYPGAVTVAWKADGSPVKAGVETTKPSKQSNNKYAASSYLSLTPEQWKSHRSYSCQVTHEGSTVEKTVAPTECSGGGSGGGSEGGGSEGGGSEGGGSEGGGSGGGSGEVQLVESGGGLVQPGGSLKLSCAASGFTFNTYAMNWVRQASGKGLEWVGRIRSKYNNYATYYADSVKDRFTISRDDSKNTAYLQMNSLKTEDTAVYYCVRHGNFGNSYVSWFAYWGQGTLVTVSSASTKGPSVFPLAPSSKSTSGGTAALGCLVKDYFPEPVTVSWNSGALTSGVHTFPAVLQSSGLYSLSSVVTVPSSSLGTQTYICNVNHKPSNTKVDKKVEPKSCDKTHTCPPCPAPEAAGGPSVFLFPPKPKDTLMISRTPEVTCVVVDVSHEDPEVKFNWYVDGVEVHNAKTKPREEQYNSTYRVVSVLTVLHQDWLNGKEYKCKVSNKALPAPIEKTISKAKGQPREPRVYTLPPCRDELTKNQVSLTCLVKGFYPSDIAVEWESNGQPENNYKTTPPVLVSDGSFTLYSKLTVDKSRWQQGNVFSCSVMHEALHNHYTQKSLSLSPG
notes: Expressed in Expi293F cells, then purified by Protein A and size exclusion; also called anti-GPNMB/anti-CD3 bispecific antibody; GPNMB/CD3 bispecific antibody
For B1, which Kd is on record?
The Kd was 1.1 nM.
